Test results from PMC8800519 (Journal of Molecular Cell Biology, 2021).

Target: recombinant mouse α1C/β2A tubulin heterodimer (mouse, UniProt P68373;Q7TMM9)
Test: single-molecule TIRF microscopy

Sequence of recombinant mouse α1C/β2A tubulin heterodimer (P68373 whole entry, one chain of several): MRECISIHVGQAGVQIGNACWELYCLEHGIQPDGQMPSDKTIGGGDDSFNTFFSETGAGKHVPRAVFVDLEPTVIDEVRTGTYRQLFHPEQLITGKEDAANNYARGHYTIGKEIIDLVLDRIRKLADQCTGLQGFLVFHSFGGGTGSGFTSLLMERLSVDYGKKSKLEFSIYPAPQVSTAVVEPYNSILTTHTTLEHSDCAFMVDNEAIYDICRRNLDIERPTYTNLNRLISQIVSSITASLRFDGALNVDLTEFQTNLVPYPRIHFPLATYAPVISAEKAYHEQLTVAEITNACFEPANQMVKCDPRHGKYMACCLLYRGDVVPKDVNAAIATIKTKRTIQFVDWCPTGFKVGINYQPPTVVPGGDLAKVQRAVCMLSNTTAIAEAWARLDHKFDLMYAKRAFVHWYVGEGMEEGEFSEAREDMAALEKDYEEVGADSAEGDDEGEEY

- binding result: binds
B1: EB1-GFP (full-length human EB1 with a GFP tag) (natural protein)
chain: MAVNVYSTSVTSDNLSRHDMLAWINESLQLNLTKIEQLCSGAAYCQFMDMLFPGSIALKKVKFQAKLEHEYIQNFKILQAGFKRMGVDKIIPVDKLVKGKFQDNFEFVQWFKKFFDANYDGKDYDPVAARQGQETAVAPSLVAPALNKPKKPLTSSSAAPQRPISTQRTAAAPKAGPGVVRKNPGVGNGDDEAAELMQQVNVLKLTVEDLEKERDFYFGKLRNIELICQENEGENDPVLQRIVDILYATDEGFVIPDEGGPQEEQEEY
